B1: Intersectin-1, residues 1156 to 1213; numbered along this chain, Q15811 (parent)
chain: AVCQVIGMYDYTAQNDDELAFNKGQIINVLNKEDPDWWKGEVNGQVGLFPSNYVKLTT

± gives the uncertainty stated by the source.

This data set covers variants of B1. Put plainly: abundance fitness (aPCA) (normalised: wild type 0, dead -1); higher = more abundant; growth selection in yeast, the domain comes from the species named. The following applies: Homo sapiens.
In the case of AVCQVIGMYDYTAQNDDELAFNKGQIINVLNKEEPDWWKGEVNGQVGLFPSNYVKLTT [D34E], the abundance fitness was -0.376 ± 0.17. On to AVCQVIGMYDYTAQNDDELAFNKGQIINVLNKEYPDWWKGEVNGQVGLFPSNYVKLTT [D34Y], for which the abundance fitness is -0.94 ± 0.29. Consider AVCQVIGMYDYTAQNDDELAFNKGQIINVLNKEGPDWWKGEVNGQVGLFPSNYVKLTT [D34G], for which the abundance fitness was -0.409 ± 0.1.

On to AVCQVIGMYDYTAQNDDELAFNKGQIINVLNKEFPDWWKGEVNGQVGLFPSNYVKLTT [D34F], for which the abundance fitness was -0.554 ± 0.19. For the variant AVCQVIGMYDYTAQNDDELAFNKGQIINVLNKEIPDWWKGEVNGQVGLFPSNYVKLTT [D34I], the abundance fitness was -0.974 ± 0.25.

For AVCQVIGMYDYTAQNDDELAFNKGQIINVLNKEAPDWWKGEVNGQVGLFPSNYVKLTT [D34A], the abundance fitness is -0.385 ± 0.12. As for AVCQVIGMYDYTAQNDDELAFNKGQIINVLNKETPDWWKGEVNGQVGLFPSNYVKLTT [D34T], the abundance fitness was -0.383 ± 0.17. For the variant AVCQVIGMYDYTAQNDDELAFNKGQIINVLNKEDPDDWKGEVNGQVGLFPSNYVKLTT [W37D], the abundance fitness is -0.637 ± 0.17. For the variant AVCQVIGMYDYTAQNDDELAFNKGQIINVLNKEDPDEWKGEVNGQVGLFPSNYVKLTT [W37E], the abundance fitness is -0.737 ± 0.15. As to AVCQVIGMYDYTAQNDDELAFNKGQIINVLNKEDPDFWKGEVNGQVGLFPSNYVKLTT [W37F], the abundance fitness was -0.307 ± 0.18.

Regarding AVCQVIGMYDYTAQNDDELAFNKGQIINVLNKEDPDAWKGEVNGQVGLFPSNYVKLTT [W37A], the abundance fitness was -0.585 ± 0.11. Consider AVCQVIGMYDYTAQNDDELAFNKGQIINVLNKEDPDCWKGEVNGQVGLFPSNYVKLTT [W37C], for which the abundance fitness is -0.588 ± 0.18. To AVCQVIGMYDYTAQNDDELAFNKGQIINVLGKEDPDWWKGEVNGQVGLFPSNYVKLTT [N31G] belongs -0.076 ± 0.088; to AVCQVIGMYDYTAQNDDELAFNKGQIINVLQKEDPDWWKGEVNGQVGLFPSNYVKLTT [N31Q], -0.099 ± 0.13.

Regarding AVCQVIGMYDYTAQNDDELAFNKGQIINVLFKEDPDWWKGEVNGQVGLFPSNYVKLTT [N31F], the abundance fitness was -1.05 ± 0.42. In the case of AVCQVIGMYDYTAQNDDELAFNKGQIINVLHKEDPDWWKGEVNGQVGLFPSNYVKLTT [N31H], the abundance fitness is -0.095 ± 0.23. Turning to AVCQVIGMYDYTAQNDDELAFNKGQIINVLCKEDPDWWKGEVNGQVGLFPSNYVKLTT [N31C], the abundance fitness is 0.287 ± 0.16. Consider AVCQVIGMYDYTAQNDDELAFNKGQIINVLLKEDPDWWKGEVNGQVGLFPSNYVKLTT [N31L], for which the abundance fitness is -0.631 ± 0.12. AVCQVIGMYDYTAQNDDELAFNKGQIINVLWKEDPDWWKGEVNGQVGLFPSNYVKLTT [N31W]: the abundance fitness was -0.287 ± 0.12. As for AVCQVIGMYDYTAQNDDELAFNKGQIINVLVKEDPDWWKGEVNGQVGLFPSNYVKLTT [N31V], the abundance fitness is -0.313 ± 0.11. On to AVCQVIGMYDYTAQNDDELAFNKGQIINVLDKEDPDWWKGEVNGQVGLFPSNYVKLTT [N31D], for which the abundance fitness was determined as 0.223 ± 0.16. AVCQVIGMYDYTAQNDDELAFNKGQIINVLYKEDPDWWKGEVNGQVGLFPSNYVKLTT [N31Y]: the abundance fitness was -0.525 ± 0.27. Consider AVCQVIGMYDYTAQNDDELAFNKGQIINVLEKEDPDWWKGEVNGQVGLFPSNYVKLTT [N31E], for which the abundance fitness came out at 0.196 ± 0.15.

With AVCQVIGMYDYTAQNDDELAFNKGQIINVLRKEDPDWWKGEVNGQVGLFPSNYVKLTT [N31R], the abundance fitness is -0.373 ± 0.094. As for AVCQVIGMYDYTAQNDDELAFNKGQIINVLSKEDPDWWKGEVNGQVGLFPSNYVKLTT [N31S], the abundance fitness was 0.006 ± 0.098. The same measure for AVCQVIGMYDYTAQNDDELAFNKGQIINVLTKEDPDWWKGEVNGQVGLFPSNYVKLTT [N31T]: -0.159 ± 0.11. The same measure for AVCQVIGMYDYTAQNDDELAFNKGQIINVLIKEDPDWWKGEVNGQVGLFPSNYVKLTT [N31I]: -0.559 ± 0.27; for AVCQVIGMYDYTAQNDDELAFNKGQIINVLMKEDPDWWKGEVNGQVGLFPSNYVKLTT [N31M]: -0.275 ± 0.13. In the case of AVCQVIGMYDYTAQNDDELAFNKGQIINVLKKEDPDWWKGEVNGQVGLFPSNYVKLTT [N31K], the abundance fitness was -0.319 ± 0.15. To AVCQVIGMYDYTAQNDDELAFNKGQIINVLPKEDPDWWKGEVNGQVGLFPSNYVKLTT [N31P] belongs -0.833 ± 0.18.

On to AVCQVIGMYDYTAQNDDELAFNKGQIINVLNLEDPDWWKGEVNGQVGLFPSNYVKLTT [K32L], for which the abundance fitness was -0.38 ± 0.093. As to AVCQVIGMYDYTAQNDDELAFNKGQIINVLNTEDPDWWKGEVNGQVGLFPSNYVKLTT [K32T], the abundance fitness is -0.093 ± 0.14. AVCQVIGMYDYTAQNDDELAFNKGQIINVLNAEDPDWWKGEVNGQVGLFPSNYVKLTT [K32A]: the abundance fitness turned out to be 0.093 ± 0.095. Consider AVCQVIGMYDYTAQNDDELAFNKGQIINVLNDEDPDWWKGEVNGQVGLFPSNYVKLTT [K32D], for which the abundance fitness is -0.296 ± 0.15. In the case of AVCQVIGMYDYTAQNDDELAFNKGQIINVLNYEDPDWWKGEVNGQVGLFPSNYVKLTT [K32Y], the abundance fitness is -0.341 ± 0.21. For the variant AVCQVIGMYDYTAQNDDELAFNKGQIINVLNGEDPDWWKGEVNGQVGLFPSNYVKLTT [K32G], the abundance fitness is -0.527 ± 0.095.

Take AVCQVIGMYDYTAQNDDELAFNKGQIINVLNWEDPDWWKGEVNGQVGLFPSNYVKLTT [K32W]: the abundance fitness was -0.109 ± 0.13. On to AVCQVIGMYDYTAQNDDELAFNKGQIINVLNREDPDWWKGEVNGQVGLFPSNYVKLTT [K32R], for which the abundance fitness worked out at 0.066 ± 0.089. AVCQVIGMYDYTAQNDDELAFNKGQIINVLNQEDPDWWKGEVNGQVGLFPSNYVKLTT [K32Q]: the abundance fitness was -0.035 ± 0.17. On to AVCQVIGMYDYTAQNDDELAFNKGQIINVLNFEDPDWWKGEVNGQVGLFPSNYVKLTT [K32F], for which the abundance fitness is -0.576 ± 0.23. With AVCQVIGMYDYTAQNDDELAFNKGQIINVLNSEDPDWWKGEVNGQVGLFPSNYVKLTT [K32S], the abundance fitness is -0.16 ± 0.13. Turning to AVCQVIGMYDYTAQNDDELAFNKGQIINVLNMEDPDWWKGEVNGQVGLFPSNYVKLTT [K32M], the abundance fitness is -0.039 ± 0.15. To AVCQVIGMYDYTAQNDDELAFNKGQIINVLNNEDPDWWKGEVNGQVGLFPSNYVKLTT [K32N] belongs -0.339 ± 0.18; to AVCQVIGMYDYTAQNDDELAFNKGQIINVLNHEDPDWWKGEVNGQVGLFPSNYVKLTT [K32H], -0.449 ± 0.21; to AVCQVIGMYDYTAQNDDELAFNKGQIINVLNCEDPDWWKGEVNGQVGLFPSNYVKLTT [K32C], -0.147 ± 0.14. In the case of AVCQVIGMYDYTAQNDDELAFNKGQIINVLNPEDPDWWKGEVNGQVGLFPSNYVKLTT [K32P], the abundance fitness is -0.736 ± 0.2.

For the origin of these results see the Human Domainome abundance scans (Beltran et al. 2025).
